Source: patent publication US20250325630A1, “HOMODIMER FUSION PROTEINS FOR TREATING ATOPIC DERMATITIS” (Intervet Inc., priority 2021, published 2025)
Numbering of substitutions follows the chain as printed.

T1: canine IL-13 (canine, UniProt Q9N0W9 19-131, limits assumed, biotin-labeled in the Octet assay (site not stated))
T1 sequence (looked up): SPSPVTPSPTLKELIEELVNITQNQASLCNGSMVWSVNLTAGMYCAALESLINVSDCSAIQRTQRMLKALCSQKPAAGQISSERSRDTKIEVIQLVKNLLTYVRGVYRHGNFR

T2: canine IL-4 (cIL-4) (Canis lupus familiaris, UniProt O77762)
T2 sequence (O77762 25-132): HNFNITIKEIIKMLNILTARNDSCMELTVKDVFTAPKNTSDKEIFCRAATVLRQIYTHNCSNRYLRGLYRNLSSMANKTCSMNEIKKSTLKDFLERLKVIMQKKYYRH

T3: canine IL-13 (cIL-13) (Canis lupus familiaris, UniProt Q9N0W9)
T3 sequence (Q9N0W9 19-131): T1 sequence (looked up)

B1: cIL-13Rα1-cIgGB-Fc (Fc fusion)
chain: GGVAAPTETQPPVTNLSVSVENLCTVIWTWDPPEGASPNCTLRYFSHFDNKQDKKIAPETHRSKEVPLNERICLQVGSQCSTNESDNPSILVEKCTPPPEGDPESAVTELQCVWHNLSYMKCTWLPGRNTSPDTNYTLYYWHSSLGKILQCEDIYREGQHIGCSFALTNLKDSSFEQHSVQIVVKDNAGKIRPSFNIVPLTSHVKPDPPHIKRLFFQNGNLYVQWKNPQNFYSRCLSYQVEVNNSQTETNDIFYVEEAKCQNSEFEGNLEGTICFMVPGVLPDTLNTVRIRVRTNKLCYEDDKLWSNWSQAMSIGENTDPTPKRENGRVPRPPDCPKCPAPEMLGGPSVFIFPPKPKDTLLIARTPEVTCVVVDLDPEDPEVQISWFVDGKQMQTAKTQPREEQFNGTYRVVSVLPIGHQDWLKGKQFTCKVNNKALPSPIERTISKARGQAHQPSVYVLPPSREELSKNTVSLTCLIKDFFPPDIDVEWQSNGQQEPESKYRTTPPQLDEDGSYFLYSKLSVDKSRWQRGDTFICAVMHEALHNHYTQESLSHSPGK
notes: Homodimer; also called cIL-13Rα1-cFc; cIL13Rα1-cFc
B2: cIL4Rα-IL13Rα1_ZW1-cFc: bispecific heterodimer of cIL-4Rα-cIgGB-Fc-ZW-A (SEQ ID NO: 18) and cIL-13Rα1-cIgGB-Fc-ZW-B (SEQ ID NO: 19) (protein)
chain 1: VKVLHEPSCFSDYISTSVCQWKMDHPTNCSAELRLSYQLDFMGSENHTCVPENREDSVCVCSMPIDDAVEADVYQLDLWAGQQLLWSGSFQPSKHVKPRTPGNLTVHPNISHTWLLMWTNPYPTENHLHSELTYMVNVSNDNDPEDFKVYNVTYMGPTLRLAASTLKSGASYSARVRAWAQTYNSTWSDWSPSTTWLNYYEPWEQHLPPKRENGRVPRPPDCPKCPAPEMLGGPSVFIFPPKPKDTLLIARTPEVTCVVVDLDPEDPEVQISWFVDGKQMQTAKTQPREEQFNGTYRVVSVLPIGHQDWLKGKQFTCKVNNKALPSPIERTISKARGQAHQPSVYVYPPSREELSKNTVSLTCLIKDFFPPDIDVEWQSNGQQEPESKYRTTPPQLDEDGSYALVSKLSVDKSRWQRGDTFICAVMHEALHNHYTQESLSHSPGK
chain 2: B1 chain with T475L, R503L, T505W
modifications: heterodimer
B3: cIL-13Rα1-cFc: homodimer of canine IL-13Rα1 ECD, IgGB hinge region and IgGB cFc fusion protein, SEQ ID NO: 6 (protein)
chain: B1 chain
modifications: homodimer
B4: cIL4Rα-IL13Rα2_ZW1-cFc: bispecific heterodimer of cIL-4Rα-cIgGB-Fc-ZW-A (SEQ ID NO: 18) and cIL-13Rα2-cIgGB-Fc-ZW-B (SEQ ID NO: 20) (protein)
chain 1: B2 chain 1
chain 2: SMLSNAEIKVNPPQDFEIVDPGYLGYLSLQWQPPLFPDNFKECTIEYELKYRNIDSENWKTIITKNLHYKDGFDLNKGIEAKINTLLPAQCTNGSEVRSSWAETTYWTSPQGNRETKIQDMDCVYYNWQYLVCSWKPGMGVHFDTNYQLFYWYEGLDHSAECTDYIKVNGKNMGCRFPYLESSDYKDFYICVNGSSESQPIRPSYFIFQLQNIVKPMPPDYLSLTVKNSEEINLKWNMPKGPIPAKCFIYEIEFTEDGTTWVTTTVENEIQITRTSNESQKLCFLVRSKVNIYCSDDGIWSEWSDEQCWKGDIWKETPKRENGRVPRPPDCPKCPAPEMLGGPSVFIFPPKPKDTLLIARTPEVTCVVVDLDPEDPEVQISWFVDGKQMQTAKTQPREEQFNGTYRVVSVLPIGHQDWLKGKQFTCKVNNKALPSPIERTISKARGQAHQPSVYVLPPSREELSKNTVSLLCLIKDFFPPDIDVEWQSNGQQEPESKYLTWPPQLDEDGSYFLYSKLSVDKSRWQRGDTFICAVMHEALHNHYTQESLSHSPGK
modifications: heterodimer

Tests used:
canine IL-13 [1] = target: T1, canine IL-13; assay: cell-based or functional assay
canine IL-13 [2] = target: T1, canine IL-13; assay: cell-based or functional assay; remark: listed apart in the source
canine IL-13 [3] = target: T1, canine IL-13; assay: BLI (Octet); summary table, rounded from Table 4
canine IL-13 [4] = target: T1, canine IL-13; assay: BLI (Octet HTX), biotin-cIL-13 on SA biosensors, fusion protein in solution, 1:1 fit
Description: (§1) The binding constants for the cFc fusion proteins provided in Tables 3 and 4 below, were determined using OCTET® HTX. All kinetics measurements were performed by OCTET® HTX using SA® biosensors and DATA ACQUISITION® 12.0 software. 10 μg/mL of biotin-labeled antigen, either canine IL-4 (cIL-4) or canine IL-13 (cIL-13) were loaded onto the SAR biosensors for 120 seconds. Next, the biosensors were placed into 1×pH 7.0 TBS/Casein buffer for 60 seconds for the blocking phase. For the association phase, antigen loaded biosensors were placed into 2-fold serial dilutions from 1 μM down to 15.6 nM of the wild-type, the bispecific, or the FcRn-mutant receptor Fc-fusions that recognized the cIL-4 or cIL-13 antigen in 1×pH 7.0 TBS/Casein buffer for 30 seconds. The last well was buffer alone and that sensor was used for reference sensor subtraction. Finally, the biosensors were placed into 1×pH 7.0 TBS/Casein buffer for 120 seconds for the dissociation phase. The results were then analyzed using Data Analysis 12.0 software and the curves were fitted using a 1:1 binding model.

canine IL-4 (cIL-4) = target: T2, canine IL-4 (cIL-4); assay: Binding kinetics of cFc fusion proteins to canine IL-4 (OCTET HTX)
Description: as §1

canine IL-13 (cIL-13) = target: T3, canine IL-13 (cIL-13); assay: Binding kinetics of cFc fusion proteins to canine IL-13 (OCTET HTX); conditions: Table 4, cIL-13; for ka: association rate constant; for kdis: dissociation rate constant
Description: as §1

[5] = system: cIL-13 mediated STAT6 phosphorylation; assay: Inhibition of cIL-13 mediated STAT6 phosphorylation in DH82 cells (AlphaLISA p-STAT6); format: cell-based, canine; conditions: for concentration inhibiting 50% of the cIL-13 mediated STAT6 phosphorylation (in words): DH82 cells
Description: The ability of the cFc fusion proteins to block the signaling mediated by IL-4 and IL-13, as measured by inhibition of STAT-6 phosphorylation in DH82 cells, were determined as follows:
• 1. Actively growing DH82 cells: Merck Animal Health Lot: 628-011, 24Oct14 • 2. HBSS, 1×: Corning, Catalog 21-022-CM • 3. AlphaLISA p-STAT6 (Tyr641) Assay Kit: Perkin Elmer, Catalog ALSU-PST6-A10K • 4. Recombinant canine IL-4: R&D Systems, Catalog: 752-CL/CF • 5a. cFc fusion protein samples for IL-4 studies • (i) cIL4Rα-cFc • (ii) cIL4Rα-IL13Rα1 ZW1-cFc • (iii) cIL4Rα-IL13Rα2 ZW1-cFc • 5b. cFc fusion protein samples for IL-13 studies: • (i) CIL13Rα1-cFc • (ii) cIL13Rα2-cFc • (iii) cIL4R-IL13Rα1 ZW1-cFc • (iv) cIL4R-IL13Rα2 ZW1-cFc • 6. Perkin Elmer® Envision
• 1. Tissue culture plates were seeded with […] DH82 cells per well (40 μL with the density of 2.5×10^5 cells/mL) and incubated at 37° C. for 2 hours. • 2. The cFc fusion proteins were pre-diluted to 2000 nM (500 nM final concentration in the well) and then 3-fold serially diluted in Hank's Balanced Salt Solution (HBSS). The proteins were added by transferring 20 μL/well to the respective locations on the tissue culture plates containing DH82 cells. • 3. (a) Canine IL-4 was diluted to 10 ng/ml in HBSS (2.5 ng/ml in the well) and 20 μL was added to each well of the plates. The plates were incubated for 15 min at 37° C.; or alternatively • (b) Canine IL-13 was diluted to 20 ng/ml in HBSS (5 ng/ml in the well) and 20 μL was added to each well of the plates. The plates were incubated for 15 min at 37° C. • 4. The plates were removed from the incubator and 20 μL of 4× Lysis buffer from the AlphaLISA® p-STAT-6 Assay Kit was added to each well of the plate. The plate was agitated on a plate shaker with 350 rpm for 10 minutes at room temperature. • 5. The Acceptor Mix was prepared from the AlphaLISA® p-STAT6 Assay Kit and 15 μL per well was added to 30 μL of the cell lysate in 96-well ½ Area Plates. The plates were sealed, agitated for 2 minutes at 350 rpm, and then incubated for 1 hour at room temperature. • 6. The Donor Mix was prepared from the AlphaLISA® p-STAT6 Assay kit under subdued laboratory lighting and 15 μL per well was added to each plate. The plates were sealed, covered with foil, agitated for 2 minutes at 350 rpm, and then incubated for 1 hour at room temperature. • 7. The plates were read using the AlphaScreen settings on the Perkin Elmer® En Vison.

| Molecule | IL-13 IC50 (inhibition of cIL-13 mediated STAT6 phosphorylation in DH82 cells) (canine IL-13 [1]) | IL-13 (IC50), summary table (canine IL-13 [2]) | Kd (canine IL-13 [3]) | Kd (canine IL-13 [4]) | koff (canine IL-13 [4]) | kon (canine IL-13 [4]) | loss in affinity for cIL-4 (KD times higher) relative to unmodified cIL-4Rα-cFc homodimer (canine IL-4 (cIL-4)) | ka (canine IL-4 (cIL-4); Table 3, association rate constant, cIL-4, ND = Binding Not Detected) | kdis (canine IL-4 (cIL-4); Table 3, dissociation rate constant, cIL-4, ND = Binding Not Detected) | ka (canine IL-13 (cIL-13)) | kdis (canine IL-13 (cIL-13)) | IC50 for cIL-13 mediated STAT6 phosphorylation, fold higher than for cIL-13Rα2-cFc [5] | concentration inhibiting 50% of the cIL-13 mediated STAT6 phosphorylation (in words) [5] | binding constant (KD) with cIL-4 (canine IL-4 (cIL-4); approximate values) |
| --- | --- | --- | --- | --- | --- | --- | --- | --- | --- | --- | --- | --- | --- | --- |
| B1 | 18.4 nM | 20 nM | 5 nM | 5.37 nM | 0.000312 s⁻¹ | 58000 M⁻¹ s⁻¹ |  |  |  |  |  |  |  |  |
| B2 |  |  |  |  |  |  | about 10,000 fold | 237000 M⁻¹ s⁻¹ | 0.00234 s⁻¹ | 94400 M⁻¹ s⁻¹ | 3.91e-05 s⁻¹ | about 20 fold | well above nanomolar concentrations |  |
| B3 |  |  |  |  |  |  |  |  |  | 58000 M⁻¹ s⁻¹ | 0.000312 s⁻¹ |  | well above nanomolar concentrations |  |
| B4 |  |  |  |  |  |  |  |  |  | 32600 M⁻¹ s⁻¹ | 0.000135 s⁻¹ | about 200 fold | well above nanomolar concentrations | undetectable |
